For assay [1], the target named is Carcinoembryonic antigen (CEA) (UniProt P06731). Nature of the assay: SPR (Biacore 2000), oxidised CEA immobilised; relative to unmodified hA5B7 Fab′. (In general: In SPR one partner is held on a chip, and binding of the other changes the refractive index at the surface.)
The target is the same in assay [2]. As to the kind of experiment: SPR (Biacore 2000), oxidised CEA immobilised on CM5 chip, Fab′ injected.
In another assay the target is T1, human TNF (human, UniProt P01375 77-233).
T1 construct: Soluble human TNF, used in the L929 assay and passed over captured antibody in BIAcore; also called human TNFα
T1 sequence (P01375 77-233 limits assumed): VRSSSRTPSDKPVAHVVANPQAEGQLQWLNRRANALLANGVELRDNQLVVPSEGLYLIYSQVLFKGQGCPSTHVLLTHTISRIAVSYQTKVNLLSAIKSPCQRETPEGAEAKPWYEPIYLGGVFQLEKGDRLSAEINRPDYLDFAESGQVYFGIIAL
Nature of the assay: BIAcore as in Example 3: sample captured by anti-Fab′ antibody, human TNF passed over.

For orientation: Kd means the constant that tells how readily two partners part at equilibrium. As usually defined, the koff is the rate constant with which the complex falls apart. Low values mean slow dissociation, high ones fast dissociation. One may read the kon as the rate constant with which the complex forms. A high value points to fast association.

Chain of Carcinoembryonic antigen (CEA) (P06731 35-685 limits assumed): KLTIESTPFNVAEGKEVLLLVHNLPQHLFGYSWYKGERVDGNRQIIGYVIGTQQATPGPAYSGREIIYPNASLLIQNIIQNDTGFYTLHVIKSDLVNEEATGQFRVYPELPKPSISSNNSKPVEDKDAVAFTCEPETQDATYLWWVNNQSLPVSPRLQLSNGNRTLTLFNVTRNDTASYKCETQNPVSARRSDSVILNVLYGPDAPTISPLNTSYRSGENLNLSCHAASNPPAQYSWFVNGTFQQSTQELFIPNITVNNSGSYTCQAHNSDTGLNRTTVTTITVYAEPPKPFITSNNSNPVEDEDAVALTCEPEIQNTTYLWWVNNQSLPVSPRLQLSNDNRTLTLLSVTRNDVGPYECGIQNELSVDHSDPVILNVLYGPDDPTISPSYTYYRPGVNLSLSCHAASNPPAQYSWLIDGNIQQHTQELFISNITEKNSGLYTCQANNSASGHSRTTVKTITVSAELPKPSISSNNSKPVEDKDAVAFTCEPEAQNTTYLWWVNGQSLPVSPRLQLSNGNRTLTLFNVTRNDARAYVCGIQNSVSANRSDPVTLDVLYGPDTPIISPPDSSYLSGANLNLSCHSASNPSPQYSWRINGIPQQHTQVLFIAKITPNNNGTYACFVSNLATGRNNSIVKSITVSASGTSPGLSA

Molecule hA5B7 Fab′ (unmodified) had an Immunoreactivity in assay [1] of 100%. Also, in assay [2], the Kd was determined as 1.87 nM, the koff was determined as 0.000161 s⁻¹ and the kon amounted to 86000 M⁻¹ s⁻¹.

B1: hTNF40 IgG (antibody, V domains shown)
VH: QIQLVQSGPELKKPGETVKISCKASGYVFTDYGMNWVKQAPGKAFKWMGWINTYIGEPIYVDDFKGRFAFSLETSASTAFLQINNLKNEDTATYFCARGYRSYAMDYWGQGTSVTVSS
VL: DIVMTQSQKFMSTSVGDRVSVTCKATQNVGTNVAWYQQKPGQSPKALIYSASFLYSGVPYRFTGSGSGTDFTLTISTVQSEDLAEYFCQQYNIYPLTFGAGTKLELKR
As to B1, the Kd with human TNF stood at 0.156 nM.
